Consider 3 sequences from article PMC4943160.

Substitutions are numbered along the chain they refer to.

Series [1] has as its target T1, rCosRWT (Campylobacter jejuni NCTC 11168) (UniProt Q0PBF4).
T1 sequence: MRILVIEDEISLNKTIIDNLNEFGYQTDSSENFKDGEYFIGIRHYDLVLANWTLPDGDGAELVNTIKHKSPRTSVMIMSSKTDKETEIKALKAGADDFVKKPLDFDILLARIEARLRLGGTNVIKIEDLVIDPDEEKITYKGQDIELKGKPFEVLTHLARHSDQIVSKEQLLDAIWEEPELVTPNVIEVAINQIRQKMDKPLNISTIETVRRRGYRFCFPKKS
Put plainly: EMSA.

Series [2] deals with T2, rCosRC218S C218S (Campylobacter jejuni NCTC 11168) (UniProt Q0PBF4).
T2 sequence: T1 sequence with C218S
Put plainly: EMSA.

“GCACAACACCTAAAGCTAAAATAGTATTTTTTTGAAATAATTTCATGGTTTTGCCTTGAAAAATTAAATTAAAAATTGTAATTTTTATTACAAAAATTTTTGGCTAATTATATCTTAATTTTGGTTAATAAAATTATTTTTTAAGCTTTGGAGCTATTGATTCCATTTAG (double strand) [11168 cmeABC promoter]”: the binding entry in series [1] was “binds”.

For the sequence “GCACAACACCTAAAGCTAAAATAGTATTTTTTTGAAATAATTTCATGGTTTTGCCTTGAAAAATTAAATTAAAAATTGTAATATTTATTACAGAAATTTTTGGCTAATTATATCTTAATTTTGGTTAATAAAATTATTTTTTAAGCTTTGGAGCTATTGATTCCATTTAG (double strand) [81-176 cmeABC promoter]”, the binding result in series [2] is “binds”. Consider “AATCCTTGCTTGCATTTTCGAAAGTTGCCTTAGCCATTAAAGCTTGTCCGTAAGCTGAATCAACACTAGCTTTAAATTTATCTTGTTCTATAATAAATAATGTTTGTCCTTTTTTTACCTTATCTCCAGCTTTAAAAAGTTTATTTACTATTACGCCGCTAACTTGAGGTT (double strand) [cmeA internal fragment]”, for which the binding result in series [1] is recorded as “no binding”.
